The source of these data is EP4669671A1 (dated 2025).

T1: human IL2RA expressed on CHO-S cells (CHO-S-hIL2RA cells) (human, UniProt P01589 22-272)
T1 sequence: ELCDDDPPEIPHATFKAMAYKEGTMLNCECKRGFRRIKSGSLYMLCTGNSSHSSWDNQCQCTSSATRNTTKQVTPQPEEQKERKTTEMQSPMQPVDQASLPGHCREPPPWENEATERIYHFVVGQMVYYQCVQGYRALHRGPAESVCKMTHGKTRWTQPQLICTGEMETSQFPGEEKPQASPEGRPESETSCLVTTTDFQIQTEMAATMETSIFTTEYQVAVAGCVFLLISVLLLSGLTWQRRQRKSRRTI

T2: His-tagged human IL2RA protein (ACROBiosystems Inc., Cat#: ILA-H52H9) (human, UniProt P01589 22-213, limits assumed)
T2 construct: Bought protein; also called hIL2RA-his; not shown: His tag
T2 sequence: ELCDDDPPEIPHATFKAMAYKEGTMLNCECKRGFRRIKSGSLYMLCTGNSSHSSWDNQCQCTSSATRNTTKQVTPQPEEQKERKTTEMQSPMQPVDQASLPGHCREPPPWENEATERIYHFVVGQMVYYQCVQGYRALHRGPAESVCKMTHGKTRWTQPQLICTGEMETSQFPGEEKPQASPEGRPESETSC

T3: monkey (Macaca fascicularis) IL2RA expressed on CHO-S cells (CHO-S-fasIL2RA cells) (monkey (Macaca fascicularis), UniProt Q5MNY4 22-272)
T3 construct: also called monkey IL2RA
T3 chain: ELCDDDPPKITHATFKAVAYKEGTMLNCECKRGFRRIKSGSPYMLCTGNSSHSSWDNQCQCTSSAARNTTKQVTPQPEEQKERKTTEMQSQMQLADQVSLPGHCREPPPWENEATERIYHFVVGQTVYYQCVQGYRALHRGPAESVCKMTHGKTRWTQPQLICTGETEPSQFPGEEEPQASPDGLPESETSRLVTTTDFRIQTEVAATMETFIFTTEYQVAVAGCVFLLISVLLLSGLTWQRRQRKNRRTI

B1: anti-IL2RA antibody 11D2 (antibody, V domains shown)
VH: QVQLVQSGGGVVQPGRSLRLSCAASGFTFTNYAIHWVRQAPGKGLEWVAVIWSDGDNKYYADSVKGRFTISRDNSKNTLYLQMNSLRAEDTAVYYCARTPWYCTSTNCYTGYYYYGMDVWGQGTTVTVSS
VL: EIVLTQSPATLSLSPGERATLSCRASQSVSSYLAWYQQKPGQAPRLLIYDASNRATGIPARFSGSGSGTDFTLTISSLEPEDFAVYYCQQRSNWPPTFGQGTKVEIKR
B2: anti-IL2RA antibody 11C12 (antibody, V domains shown)
VH: QVQLVQSGGGLVQPGGSLRLSCSASGLTFSSYGMHWVRQAPGKGLDYVSGITNNGGRTEYADSVKGRFTISRDNSKNTLYLQMSSLRTEDTAVYYCVKEDWNGQYYYYAMDVWGQGTTVTVSS
VL: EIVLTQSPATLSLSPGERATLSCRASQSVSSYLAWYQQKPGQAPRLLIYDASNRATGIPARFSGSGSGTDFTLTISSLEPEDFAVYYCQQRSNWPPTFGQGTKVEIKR
B3: anti-IL2RA antibody 7B5 (antibody, V domains shown)
VH: EVQLQQWGAGLLKPSETLSLTCAVYGGSFSGYYWNWIRQPPGKGLEWIGESDHSGSTHFNPSLKSRVTISLDTSKNQFSLKLNSVTAADTAVYFCARAPDYGDFDHWGQGILVTVSS
VL: DIQMTQSPDSLAVSLGERATINCRSSQSVLHSSTNKRYLAWYQQKPRQPPKLLIYWTSTRESGVPDRFSGSGSGTDFTLTISSLQAEDVAVYFCQQYYSTPYTFGQGTKLEIK
B4: anti-IL2RA antibody 13F9 (antibody, V domains shown)
VH: QVQLVQSGAEVKRPGASVKVSCKASGYTFTTYAIHWVRQAPGQRLEWMGWINADNGYTKYSQNFQGRVTITRDTSASTAYMDLSTLRSEDTALYYCARTPRYCTSTSCSTGYYYYGMDVWGQGTTVTVSS
VL: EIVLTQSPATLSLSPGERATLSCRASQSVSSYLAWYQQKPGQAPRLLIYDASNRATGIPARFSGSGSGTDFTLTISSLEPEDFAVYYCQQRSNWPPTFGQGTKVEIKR
B5: anti-IL2RA antibody 5D9 (antibody, V domains shown)
VH: EVQLVESGGGLVQPGGSLRLSCAASGFTVSSNYMSWVRQTPGKGLELVSFIYSGGITSYADSVRGRFTISRDNSKNTLYLQMNSLRAEDTAVYYCARDDYSNYFDYWGQGTLVTVSS
VL: DIQMTQSPSSVSASVGDRVTITCRASQGISNWLAWYQQKPGKAPKLLIFAASSLQSGVPSRFSGSGSGTDFTLTISSLQPEDFATYYCQQAKSFPITFGQGTRLEIK
notes: Variable regions were cloned into a vector with the human IgG constant region; also called 5D9-IgG1
B6: anti-IL2RA antibody 14C2 (antibody, V domains shown)
VH: QVQLVQSGGGVVQPGRSLRLSCAASGFTFSTYGMHWVRQAPGKGLEWVAVISYDGSDKIYADSVKGRFTISRDNSKNTLFLQMNSLRAEDTAVYYCATGPMENYYYYNMDVWGLGTTVTVSS
VL: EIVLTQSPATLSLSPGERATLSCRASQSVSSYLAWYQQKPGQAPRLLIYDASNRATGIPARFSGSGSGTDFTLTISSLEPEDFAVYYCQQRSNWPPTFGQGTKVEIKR
B7: anti-IL2RA antibody 11C3 (antibody, V domains shown)
VH: QVQLVQSGAEVKKPGASVKVSCKASGYTFNSYYIHWVRQAPGQGLEWLGIINPTGGRTIYAQKFQGRVTMTRDTSTTTVDMELSSLRSEDTAVYYCARVPGYCKDTSCQDFYYYYGMDVWGQGSTVTVSS
VL: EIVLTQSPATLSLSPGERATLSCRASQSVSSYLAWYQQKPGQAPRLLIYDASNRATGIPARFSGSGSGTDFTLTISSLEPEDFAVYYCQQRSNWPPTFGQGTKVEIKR

One assay concerns the target T1, human IL2RA expressed on CHO-S cells …. The assay is described as follows: flow cytometry on CHO-S-hIL2RA cells. (A flow cytometer gives signals particle by particle.)
For B1, the binding result is “binds”.
Turning to B2, the binding result is “binds”.
B3: the binding result was “binds”.
Turning to B4, the binding result is recorded as “binds”.
Consider B5, for which the binding result is on record as “binds”.
Still for that read-out and setting: next, B6: “binds”; B7: “binds”.

A further assay concerns the target T2, His-tagged human IL2RA protein …. In words: SPR (Biacore 8K), antibody captured on Protein A chip, His-tagged IL2RA as analyte. For orientation: Surface plasmon resonance follows binding to a sensor surface in real time, without labels.
On to B1, for which the binding result is “binds”.
For the molecule B2, the binding result is reported as “binds”.
Consider B3, for which the binding result is reported as “binds”.
Still for that read-out and setting: for B4 the value was “binds”; for B5, “binds”; for B6, “binds”.
For the molecule B7, the binding result was “binds”.

The next assay concerns the target T3, monkey (Macaca fascicularis) IL2RA …. The assay is described as follows: flow cytometry on CHO-S-fasIL2RA cells.
Take B1: the binding result is reported as “binds”.
For the molecule B2, the binding result is given as “binds”.
On to B3, for which the binding result is given as “binds”.
Still for that read-out and setting: for B4 the value was “binds”; for B5, “binds”.
B6: the binding result was “binds”.
For B7, the binding result is recorded as “binds”.
